In publication PMC11642901 (bioRxiv, 2024):

Target: hMOG isoform 1 on live GL261 cells (human, UniProt Q16653)
Assay: flow cytometry on cells

Chain of hMOG isoform 1 on live GL261 cells (Q16653 30-247): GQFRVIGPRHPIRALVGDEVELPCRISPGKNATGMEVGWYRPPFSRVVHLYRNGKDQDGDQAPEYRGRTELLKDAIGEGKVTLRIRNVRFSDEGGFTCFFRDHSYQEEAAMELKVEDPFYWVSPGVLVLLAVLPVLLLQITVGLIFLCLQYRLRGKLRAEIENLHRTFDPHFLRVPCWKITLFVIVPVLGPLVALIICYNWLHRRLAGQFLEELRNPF

B1: anti-MOG IgG1 clone 8–18C5 (antibody, V domains shown)
VH: EVKLHESGAGLVKPGASVEISCKATGYTFSSFWIEWVKQRPGHGLEWIGEILPGRGRTNYNEKFKGKATFTAETSSNTAYMQLSSLTSEDSAVYYCATGNTMVNMPYWGQGTTVTVSS
VL: DIELTQSPSSLAVSAGEKVTMSCKSSQSLLNSGNQKNYLAWYQQKPGLPPKLLIYGASTRESGVPDRFTGSGSGTDFTLTISSVQAEDLAVYYCQNDHSYPLTFGAGTKLEIK
B1: binds.
